Literature values as cited in US20060241020A1, “Protein tyrosine phosphatase inhibitors” (Applied Research Systems ARS Holdings N.V., priority 2002, published 2006).
Square brackets hold non-standard residues; d marks the D form. Ends that are not written are not given here. pY = N[C@@H](Cc1ccc(OP(=O)(O)O)cc1)C(=O)O

Biological target: SHP1 (Homo sapiens, UniProt P29350)
Conditions: classification of Wang Peng et al. (68); cited from earlier work

SHP1, sequence (P29350 whole entry): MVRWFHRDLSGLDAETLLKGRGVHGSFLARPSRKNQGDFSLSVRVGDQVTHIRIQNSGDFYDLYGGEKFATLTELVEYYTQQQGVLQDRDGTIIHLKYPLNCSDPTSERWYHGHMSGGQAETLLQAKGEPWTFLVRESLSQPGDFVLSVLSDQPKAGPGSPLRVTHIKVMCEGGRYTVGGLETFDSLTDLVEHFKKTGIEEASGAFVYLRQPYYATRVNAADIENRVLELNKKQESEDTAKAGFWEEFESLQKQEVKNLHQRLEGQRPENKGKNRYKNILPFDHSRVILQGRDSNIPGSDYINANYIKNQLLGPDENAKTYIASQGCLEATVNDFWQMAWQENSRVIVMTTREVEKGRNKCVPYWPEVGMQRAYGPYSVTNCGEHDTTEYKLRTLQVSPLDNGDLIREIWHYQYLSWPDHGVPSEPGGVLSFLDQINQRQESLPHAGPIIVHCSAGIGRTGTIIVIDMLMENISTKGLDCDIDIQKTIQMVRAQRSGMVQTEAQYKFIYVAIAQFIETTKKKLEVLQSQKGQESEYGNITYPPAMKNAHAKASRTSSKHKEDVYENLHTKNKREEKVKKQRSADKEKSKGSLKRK

RNNEFpYA-NH2 (RNNEF[pY]A-NH2; N-terminus assumed; SMILES C[C@H](NC(=O)[C@H](Cc1ccc(OP(=O)(O)O)cc1)NC(=O)[C@H](Cc1ccccc1)NC(=O)[C@H](CCC(=O)O)NC(=O)[C@H](CC(N)=O)NC(=O)[C@H](CC(N)=O)NC(=O)[C@@H](N)CCCNC(=N)N)C(N)=O) [SHP-1 peptide of Wang Peng et al., excluded from the invention]
Substrate class for SHP-1: class 3
